{
  "source": "patent US20210324374",
  "target": "Insulin (UniProt P01308+P01308)",
  "sequence (P01308 25-54, chain 1 of 2)": "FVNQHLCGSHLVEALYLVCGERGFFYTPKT",
  "sequence (P01308 90-110, chain 2 of 2)": "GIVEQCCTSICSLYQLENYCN",
  "test": "flow",
  "conditions": "dT replaced by C8-alkyne-dU clicked with phenylalanine azide (positions incorporated by polymerase); bead-based assay, buffer",
  "data": [
    {"sequence": "GCGCATACCAGCTTATTCAATCGTCGAGAACTCCTCCGGCTCTAACTCCGATTATAGCCAAAGATAGTAAGTGCAATCTCGGC [Ins24]", "values": [
      {"measurement": "Kd", "value": 2.56, "unit": "µM"}
    ]}
  ]
}
